What all share (experiment): FRET or BRET; FLIM-FRET by TCSPC in live co-transfected HEK293T cells, 37°C, L-15 medium; lifetime of the mT2 donor against donor alone; SYFP2 or EYFP fusion as acceptor
A general note: BRET reads energy transfer from a luciferase to a nearby fluorophore.

One test addresses BAK-mTurquoise2 (UniProt Q16611).
A further test concerns the target T1, BAK-SYFP2 (UniProt Q16611 1-211).
T1 construct: BAK, pro-apoptotic BCL2 family protein; amplified by PCR from Flag-tagged BAK; Cloned with EcoRI and XhoI into the SYFP2 plasmid; also called SYFP2-BAK; source: HEK293T or IHH cells, transfected, in live cells
T1 sequence (looked up): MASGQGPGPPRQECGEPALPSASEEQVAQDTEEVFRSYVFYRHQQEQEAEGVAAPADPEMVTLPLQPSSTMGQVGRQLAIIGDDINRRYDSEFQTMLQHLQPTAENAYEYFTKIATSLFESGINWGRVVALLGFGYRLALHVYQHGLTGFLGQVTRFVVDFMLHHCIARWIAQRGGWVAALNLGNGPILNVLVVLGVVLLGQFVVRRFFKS
The following applies: partners not purified.

Another test concerns the target T2, BAX-SYFP2 (UniProt Q07812 1-192).
T2 construct: BAX, pro-apoptotic BCL2 family protein; amplified by PCR from Flag-tagged BAX; Cloned with EcoRI and XhoI into the SYFP2 plasmid; also called SYFP2-tagged BAX; source: HEK293T, transfected, in live cells
As to conditions: partners not purified.

For another test, the target named is T3, BAX-mTurquoise2 (UniProt Q07812 1-192).
T3 construct: BAX, pro-apoptotic BCL2 family protein; amplified by PCR from Flag-tagged BAX; Cloned with EcoRI and XhoI into the mTurquoise2 plasmid; also called BAX-mT2; mT2-fused BAX; source: HEK293T, transfected, in live cells
T3 sequence (Q07812 whole entry, the tested form may be a part): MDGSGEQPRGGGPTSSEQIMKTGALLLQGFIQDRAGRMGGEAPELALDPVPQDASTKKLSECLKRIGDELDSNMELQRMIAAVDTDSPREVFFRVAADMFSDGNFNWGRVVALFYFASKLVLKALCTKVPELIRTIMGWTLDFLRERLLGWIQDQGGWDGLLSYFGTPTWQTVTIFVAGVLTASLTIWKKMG
As to conditions: partners not purified.

T2 sequence (Q07812 whole entry): as the sequence (Q07812 whole entry, the tested form may be a part) above

For “free SYFP2 (Super Yellow Fluorescent Protein 2)”, the mean FRET efficiency with BAK-mTurquoise2 was < 0.1%.

B1: p40MET-mTurquoise2 (domain or fragment, mouse, UniProt P16056 1001-1374, looked up)
chain: YRATFPEDQFPNSSQNGACRQVQYPLTDLSPILTSGDSDISSPLLQNTVHIDLSALNPELVQAVQHVVIGPSSLIVHFNEVIGRGHFGCVYHGTLLDNDGKKIHCAVKSLNRITDIEEVSQFLTEGIIMKDFSHPNVLSLLGICLRSEGSPLVVLPYMKHGDLRNFIRNETHNPTVKDLIGFGLQVAKGMKYLASKKFVHRDLAARNCMLDEKFTVKVADFGLARDMYDKEYYSVHNKTGAKLPVKWMALESLQTQKFTTKSDVWSFGVLLWELMTRGAPPYPDVNTFDITIYLLQGRRLLQPEYCPDALYEVMLKCWHPKAEMRPSFSELVSRISSIFSTFIGEHYVHVNATYVNVKCVAPYPSLLPSQDNID
notes: limits worked out from the stated caspase sites; also called p40MET-mT2; mT2-p40MET; source: HEK293T or IHH cells, transfected, in live cells
On to B1, for which the “mean FRET efficiency” value with BAK-SYFP2 came to 4%; with BAX-SYFP2, 2.5%.

B2: p40MET-SYFP2 (domain or fragment, mouse, UniProt P16056 1001-1374, looked up)
chain: B1 chain
notes: limits worked out from the stated caspase sites; also called SYFP2-p40MET; source: HEK293T or IHH cells, transfected, in live cells
As to B2, the “mean FRET efficiency” value with BAX-mTurquoise2 is 4.3%.

The values above are taken from publication PMC7039684, “Control of cell death/survival balance by the MET dependence receptor” (eLife, 2020).
